Reference: patent US20230414780A1 (VECT HORUS, published 2023)

Columns and labels:
[1] = target: T1, murine TfR expressed by murine neuroblastoma Neuro-2a cells (mouse, UniProt Q62351 1-763); assay: competition with the fluorescent reference VHH on Neuro-2a cells as in FIG. 25; Ki/app on mTfR
T1 construct: whole, on cells; also called mTfR (N2a cells)
Description: (§1) The binding of VHH-Oligo and VHH-hFc-Oligo conjugates to mTfR was evaluated using a competition assay on living cells expressing the receptor of interest, namely murine neuroblastoma Neuro-2a cells (N2a). N2a cells were grown in Dulbecco's Modified Eagle Medium (DMEM) GlutaMAX supplemented with 10% v/v FBS in 5% CO₂ at 37° C. Cells were seeded two days before experiments in 96-well plates at a density of 50.000 cells/well. […] Resuspended cells were transferred in a 96-deepwell plate (V-bottom) containing 1% fetal bovine serum (FBS)/0.02% sodium azide in phosphate-buffered saline (PBS) and then centrifuged for 5 min at 2000 rpm at 4° C. After removing the supernatant, 5 mM EDTA in D-PBS and 4% paraformaldehyde (PFA) (v/v 1:1) were added into wells to fix cells for 15 min at room temperature. PFA was removed by centrifugation (5 min, 3000 rpm, 4° C.) and cells were resuspended with 5 mM EDTA in D-PBS. Then the cellular A680-associated fluorescence signal was quantified using an Attune™ NxT flow cytometer (Thermo Fisher Scientific) equipped with Attune™ NxT v3.1.2. Experimental data (experimental triplicates) were fitted with GraphPad Prism® software using a nonlinear fit to determine the apparent Ki inhibition constants.

[2] = target: T2, human TfR ectodomain fused to a mouse IgG1 Fc fragment (human, UniProt P02786 89-760); assay: SPR, kinetic
T2 construct: extracellular domain; ectodomain fused to the N-terminal end of the Fc, made in-house; not shown: mouse IgG1 Fc fragment
How it was run: (§2)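 TfR–mouse Fc fusions, produced in-house, captured on HC 1500M or CM5 chips either directly or via immobilized anti-mouse IgG. VHHs injected in single-cycle or multiple-cycle kinetic mode on Biacore T200.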

[3] = target: T3, mouse TfR ectodomain fused to a mouse IgG1 Fc fragment (mouse, UniProt Q62351 89-763); assay: SPR, kinetic
T3 construct: extracellular domain; not shown: mouse IgG1 Fc fragment
How it was run: as §2

[4] = target: T3, mouse TfR ectodomain fused to a mouse …; assay: SPR, at equilibrium
How it was run: as §2

[5] = target: T4, human transferrin receptor (hTfR) fused to EGFP, on CHO cells (human, UniProt P02786 1-760); assay: apparent Kd, flow cytometry, CHO cells
T4 construct: whole, on cells; also called human TfR; CHO-hTfR-EGFP; not shown: EGFP from pEGFP-C1 vector, fused to the N-terminal (intracellular) end of hTfR
How it was run: (§3)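 CHO cells expressing TfR-EGFP fusions, blocked in PBS/BSA 2%, then incubated with increasing VHH concentrations for 1 hr at 4° C. Bound VHH detected via anti-6His antibody and Alexa647 secondary, cells PFA-fixed, read by flow cytometry. Apparent Kd from nonlinear fit.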

[6] = target: T5, mouse transferrin receptor (mTfR) fused to EGFP, on CHO cells (mouse, UniProt Q62351 1-763); assay: apparent Kd, flow cytometry, CHO cells
T5 construct: whole, on cells; also called mouse TfR; CHO-mTfR-EGFP; not shown: EGFP
How it was run: as §3

[7] = target: T6, rhesus monkey transferrin receptor (rhTfR) fused to EGFP, on CHO cells (rhesus monkey); assay: apparent Kd, flow cytometry, CHO cells
T6 construct: whole, on cells; also called rhesus monkey TfR
How it was run: as §3

[8] = target: T1, murine TfR expressed by murine …; assay: competition with the fluorescent reference VHH on Neuro-2a cells as in FIG. 25; Ki/app on mTfR, free VHH
Description: as §1

[9] = target: T2, human TfR ectodomain fused to a mouse …; assay: SPR, at equilibrium
How it was run: as §2

[10] = target: T5, mouse transferrin receptor (mTfR) fused …; assay: cell-based flow cytometry assay on mTfR-expressing cells (as in Example XI)
[11] = target: T5, mouse transferrin receptor (mTfR) fused …; assay: cell-based flow cytometry assay on mTfR-expressing cells (as in Example XI); Kd/app

T3 sequence (Q62351 89-763): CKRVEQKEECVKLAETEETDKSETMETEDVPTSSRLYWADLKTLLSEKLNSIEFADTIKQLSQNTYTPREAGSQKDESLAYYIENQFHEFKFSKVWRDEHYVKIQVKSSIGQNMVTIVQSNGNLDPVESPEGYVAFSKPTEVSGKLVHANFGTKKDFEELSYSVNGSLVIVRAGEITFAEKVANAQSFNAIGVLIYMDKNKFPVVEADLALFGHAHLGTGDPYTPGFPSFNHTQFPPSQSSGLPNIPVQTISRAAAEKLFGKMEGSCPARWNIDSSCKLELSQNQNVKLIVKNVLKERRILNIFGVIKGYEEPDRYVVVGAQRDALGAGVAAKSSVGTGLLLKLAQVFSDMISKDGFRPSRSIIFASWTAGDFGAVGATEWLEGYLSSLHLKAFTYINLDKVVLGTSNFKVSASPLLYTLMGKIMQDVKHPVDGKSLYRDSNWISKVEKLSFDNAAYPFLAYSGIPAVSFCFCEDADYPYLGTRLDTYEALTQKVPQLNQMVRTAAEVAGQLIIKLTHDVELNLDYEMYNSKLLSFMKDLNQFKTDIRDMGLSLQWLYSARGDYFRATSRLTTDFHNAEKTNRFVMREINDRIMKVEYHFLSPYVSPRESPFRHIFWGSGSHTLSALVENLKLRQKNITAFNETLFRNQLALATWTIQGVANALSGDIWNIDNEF
T2 sequence (P02786 89-760): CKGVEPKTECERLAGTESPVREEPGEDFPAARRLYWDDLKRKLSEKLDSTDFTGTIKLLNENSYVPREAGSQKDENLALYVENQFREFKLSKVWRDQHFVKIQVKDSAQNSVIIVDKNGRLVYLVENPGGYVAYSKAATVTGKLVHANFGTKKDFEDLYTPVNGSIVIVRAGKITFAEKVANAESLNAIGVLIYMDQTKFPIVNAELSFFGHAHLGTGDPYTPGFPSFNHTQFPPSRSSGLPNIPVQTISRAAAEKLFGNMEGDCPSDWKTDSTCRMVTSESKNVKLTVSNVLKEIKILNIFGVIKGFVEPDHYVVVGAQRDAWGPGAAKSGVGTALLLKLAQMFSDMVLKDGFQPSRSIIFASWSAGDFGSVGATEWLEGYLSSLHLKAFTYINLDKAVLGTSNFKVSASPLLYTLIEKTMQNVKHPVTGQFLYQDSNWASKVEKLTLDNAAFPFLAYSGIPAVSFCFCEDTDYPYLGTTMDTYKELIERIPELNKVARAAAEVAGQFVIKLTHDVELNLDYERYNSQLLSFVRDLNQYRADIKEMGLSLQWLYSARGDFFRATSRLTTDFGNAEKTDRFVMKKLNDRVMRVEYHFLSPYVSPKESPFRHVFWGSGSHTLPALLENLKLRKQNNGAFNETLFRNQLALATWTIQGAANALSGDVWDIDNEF
T5 sequence (Q62351 whole entry, the tested form may be a part): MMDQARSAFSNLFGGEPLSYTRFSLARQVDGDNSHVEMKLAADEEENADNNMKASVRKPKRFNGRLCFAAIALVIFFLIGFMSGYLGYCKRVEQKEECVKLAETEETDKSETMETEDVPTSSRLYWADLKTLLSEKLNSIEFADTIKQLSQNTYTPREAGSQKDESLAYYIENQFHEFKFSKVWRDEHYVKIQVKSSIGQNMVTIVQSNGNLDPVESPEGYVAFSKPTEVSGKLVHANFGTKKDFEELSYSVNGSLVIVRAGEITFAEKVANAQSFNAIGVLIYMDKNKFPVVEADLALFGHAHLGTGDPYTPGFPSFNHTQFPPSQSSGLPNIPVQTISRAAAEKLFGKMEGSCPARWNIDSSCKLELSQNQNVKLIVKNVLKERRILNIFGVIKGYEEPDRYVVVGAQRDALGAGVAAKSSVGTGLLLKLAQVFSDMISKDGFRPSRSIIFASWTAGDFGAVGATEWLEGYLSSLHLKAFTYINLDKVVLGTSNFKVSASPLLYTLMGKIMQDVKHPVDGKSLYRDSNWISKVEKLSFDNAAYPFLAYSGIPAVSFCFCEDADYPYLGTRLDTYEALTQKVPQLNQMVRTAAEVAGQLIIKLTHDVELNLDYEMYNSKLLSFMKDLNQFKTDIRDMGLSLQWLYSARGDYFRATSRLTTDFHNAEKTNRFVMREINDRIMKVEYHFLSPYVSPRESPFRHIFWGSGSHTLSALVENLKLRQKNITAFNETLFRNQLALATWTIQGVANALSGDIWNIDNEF
T1 sequence (Q62351 whole entry): as the sequence (Q62351 whole entry, the tested form may be a part) above
T4 sequence (P02786 whole entry, the tested form may be a part): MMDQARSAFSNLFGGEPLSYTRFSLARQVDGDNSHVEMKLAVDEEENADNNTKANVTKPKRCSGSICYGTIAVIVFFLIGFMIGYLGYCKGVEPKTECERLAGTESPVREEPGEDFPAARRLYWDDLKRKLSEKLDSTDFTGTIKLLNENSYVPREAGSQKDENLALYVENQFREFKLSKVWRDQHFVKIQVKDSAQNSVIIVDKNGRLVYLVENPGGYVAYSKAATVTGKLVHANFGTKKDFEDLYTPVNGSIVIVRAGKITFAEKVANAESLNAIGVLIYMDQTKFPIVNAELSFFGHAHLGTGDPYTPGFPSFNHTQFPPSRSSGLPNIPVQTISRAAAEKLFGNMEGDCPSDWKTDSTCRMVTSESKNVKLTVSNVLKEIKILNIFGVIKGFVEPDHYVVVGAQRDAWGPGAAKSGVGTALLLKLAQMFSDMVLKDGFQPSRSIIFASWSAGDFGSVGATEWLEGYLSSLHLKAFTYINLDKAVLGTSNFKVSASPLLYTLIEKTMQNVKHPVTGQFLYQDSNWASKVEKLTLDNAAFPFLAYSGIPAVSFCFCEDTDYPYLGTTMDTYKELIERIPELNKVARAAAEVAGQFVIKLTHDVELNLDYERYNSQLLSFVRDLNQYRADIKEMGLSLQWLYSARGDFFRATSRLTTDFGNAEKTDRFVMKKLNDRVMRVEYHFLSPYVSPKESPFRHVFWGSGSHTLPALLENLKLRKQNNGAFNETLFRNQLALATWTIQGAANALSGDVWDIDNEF

B1: C5h19-siSOD1m (VHH)
VHH: EVQLVESGGGVVQPGGSLRLSCAASGTDFSINFIRWYRQAPGKQREFVAGFTATGNTNYADSVKGRFTISRDNAKNTLYLQMNSLRPEDTAVYYCYMLDKWGQGTQVTVSS
modifications: conjugated to the siSOD1m siRNA duplex through a linker; site and tag not given for this conjugate ; VHH conjugated through a C-terminal tag and a stable click linker to the 3' end of the sense strand of the siSOD1m siRNA duplex (SEQ ID NO 465/466). The letters cannot carry this.
notes: Member of the group m173; not shown: C-terminal tag/linker that carries the siRNA
B1 gave a Ki [1] of 2630 nM.

B2: C5V1-siSOD1m (VHH)
VHH: EVQLVESGGGVVQPGGSLKLSCVASGADFSINFIRWYRQAPGKQREFVAGFTATGNTNYADSMKGRFTISRDNTKNAVYLQIDSLKPEDTAVYYCYMLDKWGQGTQVTVSS
modifications: conjugated to the siSOD1m siRNA duplex through a linker; site and tag not given for this conjugate ; VHH conjugated through a C-terminal tag and a stable click linker to the 3' end of the sense strand of the siSOD1m siRNA duplex (SEQ ID NO 465/466). The letters cannot carry this.
notes: as for B1
Work on B2 yielded a Ki [1] of 224 nM.

B3: C5V13-siSOD1m (VHH)
VHH: EVQLVESGGGVVQPGGSLKLSCVASGTDFSINFIRWYRQAPGKQREFVAGFSATGNTNYADSMKGRFTISRDNTKNAVYLQIDSLKPEDTAVYYCYMLDKWGQGTQVTVSS
modifications: conjugated to the siSOD1m siRNA duplex through a linker; site and tag not given for this conjugate ; VHH conjugated through a C-terminal tag and a stable click linker to the 3' end of the sense strand of the siSOD1m siRNA duplex (SEQ ID NO 465/466). The letters cannot carry this.
notes: as for B1
With B3 the Ki [1] was 512 nM.

B4: C5h18-siSOD1m (VHH)
VHH: EVQLVESGGGVVQPGGSLKLSCVASGTDFSINFIRWYRQAPGKGLEFVAGFTATGNTNYADSVKGRFTISRDNAKNTLYLQMNSLRPEDTAVYYCYMLDKWGQGTQVTVSS
modifications: conjugated to the siSOD1m siRNA duplex through a linker; site and tag not given for this conjugate ; VHH conjugated through a C-terminal tag and a stable click linker to the 3' end of the sense strand of the siSOD1m siRNA duplex (SEQ ID NO 465/466). The letters cannot carry this.
notes: as for B1
B4 gave a Ki [1] of 1070 nM.

B5: VHH A13 (C5^V13) (VHH)
VHH: EVQLVESGGGVVQPGGSLKLSCVASGTDFSINFIRWYRQAPGKQREFVAGFSATGNTNYADSMKGRFTISRDNTKNAVYLQIDSLKPEDTAVYYCYMLDKWGQGTQVTVSS
Work on B5 yielded a Kd [2] of 0.357 nM, a koff [2] of 0.000392 s⁻¹ and a kon [2] of 1.14e+06 M⁻¹ s⁻¹. For the same binder, the Kd [3] was 78.9 nM, the koff [3] was 0.0182 s⁻¹ and the kon [3] was 231000 M⁻¹ s⁻¹. The Kd [4] was 113 nM, the Kd [5] was 3.5 nM and the Kd [6] was 187 nM. It also gave a Kd [7] of 28 nM and a Ki [8] of 1320 nM.

B6: C5^h19 (VHH)
VHH: EVQLVESGGGVVQPGGSLRLSCAASGTDFSINFIRWYRQAPGKQREFVAGFTATGNTNYADSVKGRFTISRDNAKNTLYLQMNSLRPEDTAVYYCYMLDKWGQGTQVTVSS
For B6, the Kd [2] was 16.3 nM, the koff [2] was 0.00904 s⁻¹ and the kon [2] was 624000 M⁻¹ s⁻¹. It also gave a Kd [3] of 643 nM, a koff [3] of 0.00825 s⁻¹ and a kon [3] of 12800 M⁻¹ s⁻¹. It also gave a Kd [9] of 13.2 nM, a Kd [4] of 2750 nM and a Kd [5] of 5.4 nM. The Kd [6] was 1030 nM, the Kd [7] was 521 nM and the Ki [8] was 7600 nM.

B7: 13C3-HC-C5h9 (antibody)
heavy: QVQLQQSGPELVRPGVSVKISCKGSGYTFTDYAMHWVKQSHAKSLEWIGVISTKYGKTNYNQKFKGKATMTVDKSSSTAYMELARLTSEDSAIYYCARGDDGYSWGQGTSVTVSSAKTTPPSVYPLAPGSAAQTNSMVTLGCLVKGYFPEPVTVTWNSGSLSSGVHTFPAVLQSDLYTLSSSVTVPSSTWPSETVTCNVAHPASSTKVDKKIVPRDCGCKPCICTVPEVSSVFIFPPKPKDVLTITLTPKVTCVVVDISKDDPEVQFSWFVDDVEVHTAQTQPREEQFNSTFRSVSELPIMHQDWLNGKEFKCRVNSAAFPAPIEKTISKTKGRPKAPQVYTIPPPKEQMAKDKVSLTCMITDFFPEDITVEWQWNGQPAENYKNTQPIMDTDGSYFVYSKLNVQKSNWEAGNTFTCSVLHEGLHNHHTEKSLSHSPGGGGGMAEVQLVESGGGVVQPGGSLRLSCAASGTDFSINFIRWYRQAPGKGLEFVAGFTATGNTNYADSVKGRFTISRDNAKNTLYLQMNSLRPEDTAVYYCYMLDKWGQGTQVTVSSAAA
light: DVVMTQTPLSLPVSLGDQASISCRSGQSLVHSNGNTYLHWYLQKPGQSPKLLIYTVSNRFSGVPDRFSGSGSGSDFTLKISRVEAEDLGVYFCSQNTFVPWTFGGGTKLEIKRADAAPTVSIFPPSSEQLTSGGASVVCFLNNFYPKDINVKWKIDGSERQNGVLNSWTDQDSKDSTYSMSSTLTLTKDEYERHNSYTCEATHKTSTSPIVKSFNRNEC
For B7, the Bmax [10] was 531 RFI and the Kd [11] was 15.8 nM.
